Laboratory results: publication PMC4858972, “Structural and Biochemical Characterization of the Early and Late Enzymes in the Lignin β-Aryl Ether Cleavage Pathway from Sphingobium sp. SYK-6” (The Journal of Biological Chemistry, 2016)

Experiments:
purified protein [1] = substrate: COc1cc([C@H](O)[C@@H](CO)Oc2ccccc2OC)ccc1O; test: purified protein; format: biochemical, Sphingobium sp. SYK-6; conditions: 5 mM NAD+, pH 9.0, 30 °C
purified protein [2] = substrate: COc1cc([C@H](O)[C@H](CO)Oc2ccccc2OC)ccc1O; test: purified protein; format: biochemical, Sphingobium sp. SYK-6; conditions: 5 mM NAD+, pH 9.0, 30 °C

B1: LigL (Sphingobium sp. SYK-6) (protein)
chain: MDIAGTTAFITGGASGIGFGIAQRLLANGARLVLADIRQDHLDEARQFFEERQQGRNVHTIRLDVSDRAQMAEAARECEAVMGGPDILINNAGIDPSGPFKDATYQDWDYGLAINLMGPINGIMAFTPGMRARGRGGHIVNTASLAGLTPMPSFMAIYATAKAAVITLTETIRDSMAEDNIGVTVLMPGPIKSRIHESGQNRPERFRAGSGLAETEQQLAKRVVADNWMEPTEVGDMIVDAIVHNKLYVSTHGNWRETCEARFQALLDSMPEARPFDFGASLAVPKEEA
notes: synthetic gene in pCPD, C-terminal V. cholerae MARTX cysteine protease domain (CPD)-His tag self-cleaved after a Leu, expressed in E. coli (NEB Express), biological dimer
B1 showed a Km (purified protein [1]) of 20.3 ± 3.2 µM, a Vmax (purified protein [1]) of 21.8 µmol/min/mg and a kcat (purified protein [1]) of 4.9 ± 0.3 s⁻¹. For the same protein, the kcat/Km (purified protein [1]) was 240000 ± 41000 M⁻¹ s⁻¹, the Km (purified protein [2]) was 10.9 ± 0.8 µM and the Vmax (purified protein [2]) was 33.7 µmol/min/mg. The kcat (purified protein [2]) was 7.5 ± 0.1 s⁻¹ and the kcat/Km (purified protein [2]) was 688000 ± 53000 M⁻¹ s⁻¹.
